Assay results from patent publication US20230340151A1 (Pfizer, published 2023).

How the values were obtained:
GUCY2C_ECD Peptide 8 = biological target: T1, GUCY2C_ECD Peptide 8 (human); test: peptide DELFIA ELISA;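 also: epitope mapping using overlapping 20-mer GUCY2C peptides covering residues 1-440, extracellular into transmembrane domain, coated at 20 µg/ml as target antigen and probed with antibodies or GUCY2C-CD3 bispecifics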
T1 peptide: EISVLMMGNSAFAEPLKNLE

GUCY2C_ECD Peptide 16 = biological target: T2, GUCY2C_ECD Peptide 16 (human); test: peptide DELFIA ELISA;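 also: epitope mapping using overlapping 20-mer GUCY2C peptides covering residues 1-440, extracellular into transmembrane domain, coated at 20 µg/ml as target antigen and probed with antibodies or GUCY2C-CD3 bispecifics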
T2 peptide: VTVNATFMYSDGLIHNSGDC

GUCY2C_ECD Peptide 21 = biological target: T3, GUCY2C_ECD Peptide 21 (human); test: peptide DELFIA ELISA;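 also: epitope mapping using overlapping 20-mer GUCY2C peptides covering residues 1-440, extracellular into transmembrane domain, coated at 20 µg/ml as target antigen and probed with antibodies or GUCY2C-CD3 bispecifics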
T3 peptide: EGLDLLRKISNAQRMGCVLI

GUCY2C_ECD Peptide 36 = biological target: T4, GUCY2C_ECD Peptide 36 (human); test: peptide DELFIA ELISA;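 also: epitope mapping using overlapping 20-mer GUCY2C peptides covering residues 1-440, extracellular into transmembrane domain, coated at 20 µg/ml as target antigen and probed with antibodies or GUCY2C-CD3 bispecifics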
T4 peptide: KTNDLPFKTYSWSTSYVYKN

GUCY2C_ECD Peptide 48 = biological target: T5, GUCY2C_ECD Peptide 48 (human); test: peptide DELFIA ELISA
T5 peptide: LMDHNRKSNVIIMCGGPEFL

GUCY2C_ECD Peptide 51 = biological target: T6, GUCY2C_ECD Peptide 51 (human); test: peptide DELFIA ELISA
T6 peptide: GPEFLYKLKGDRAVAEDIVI

GUCY2C_ECD Peptide 59 = biological target: T7, GUCY2C_ECD Peptide 59 (human); test: peptide DELFIA ELISA
T7 peptide: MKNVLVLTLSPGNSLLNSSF

GUCY2C_ECD Peptide 60 = biological target: T8, GUCY2C_ECD Peptide 60 (human); test: peptide DELFIA ELISA
T8 peptide: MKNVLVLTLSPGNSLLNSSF

GUCY2C_ECD Peptide 71 = biological target: T9, GUCY2C_ECD Peptide 71 (human); test: peptide DELFIA ELISA
T9 peptide: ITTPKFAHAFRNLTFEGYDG

GUCY2C_ECD Peptide 81 = biological target: T10, GUCY2C_ECD Peptide 81 (human); test: peptide DELFIA ELISA
T10 peptide: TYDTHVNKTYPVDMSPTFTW

[1] = biological target: CID1873 (human GUCY2c patch mutant) (human/chicken); test: flow cytometry on cells displaying the construct
[2] = biological target: T11, CID1876 (human-chicken GUCY2c chimera) (human/chicken); test: flow cytometry on cells displaying the construct
T11 chain: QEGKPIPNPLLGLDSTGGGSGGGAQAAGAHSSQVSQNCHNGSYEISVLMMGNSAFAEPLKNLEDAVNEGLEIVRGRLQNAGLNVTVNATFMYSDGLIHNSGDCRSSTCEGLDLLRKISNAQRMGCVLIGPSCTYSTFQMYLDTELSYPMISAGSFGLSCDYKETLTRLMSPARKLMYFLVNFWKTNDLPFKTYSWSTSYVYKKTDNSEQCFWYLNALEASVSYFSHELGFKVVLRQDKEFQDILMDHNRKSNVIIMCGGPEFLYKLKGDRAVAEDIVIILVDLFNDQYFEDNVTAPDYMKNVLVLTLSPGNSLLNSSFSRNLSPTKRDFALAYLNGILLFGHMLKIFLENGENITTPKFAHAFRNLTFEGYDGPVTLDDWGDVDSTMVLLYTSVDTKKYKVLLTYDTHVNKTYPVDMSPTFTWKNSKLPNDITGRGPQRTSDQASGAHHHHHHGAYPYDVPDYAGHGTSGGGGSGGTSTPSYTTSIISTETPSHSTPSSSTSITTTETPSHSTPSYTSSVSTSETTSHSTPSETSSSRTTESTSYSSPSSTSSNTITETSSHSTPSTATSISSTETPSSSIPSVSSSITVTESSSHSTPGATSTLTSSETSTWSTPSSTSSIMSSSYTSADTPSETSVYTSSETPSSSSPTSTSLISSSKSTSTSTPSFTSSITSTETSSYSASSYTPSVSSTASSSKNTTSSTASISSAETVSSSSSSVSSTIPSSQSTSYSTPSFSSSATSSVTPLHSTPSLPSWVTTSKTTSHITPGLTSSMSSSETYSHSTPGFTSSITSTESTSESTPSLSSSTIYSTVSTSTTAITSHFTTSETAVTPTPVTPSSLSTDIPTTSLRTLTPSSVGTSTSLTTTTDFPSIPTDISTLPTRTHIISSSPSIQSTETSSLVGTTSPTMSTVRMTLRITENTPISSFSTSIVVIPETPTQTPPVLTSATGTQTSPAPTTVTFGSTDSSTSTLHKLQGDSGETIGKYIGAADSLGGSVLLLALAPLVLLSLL

[3] = biological target: T12, CID1939 (reverse chimera, chicken GUCY2c with human residues) (chicken/human); test: flow cytometry on cells displaying the construct
T12 chain: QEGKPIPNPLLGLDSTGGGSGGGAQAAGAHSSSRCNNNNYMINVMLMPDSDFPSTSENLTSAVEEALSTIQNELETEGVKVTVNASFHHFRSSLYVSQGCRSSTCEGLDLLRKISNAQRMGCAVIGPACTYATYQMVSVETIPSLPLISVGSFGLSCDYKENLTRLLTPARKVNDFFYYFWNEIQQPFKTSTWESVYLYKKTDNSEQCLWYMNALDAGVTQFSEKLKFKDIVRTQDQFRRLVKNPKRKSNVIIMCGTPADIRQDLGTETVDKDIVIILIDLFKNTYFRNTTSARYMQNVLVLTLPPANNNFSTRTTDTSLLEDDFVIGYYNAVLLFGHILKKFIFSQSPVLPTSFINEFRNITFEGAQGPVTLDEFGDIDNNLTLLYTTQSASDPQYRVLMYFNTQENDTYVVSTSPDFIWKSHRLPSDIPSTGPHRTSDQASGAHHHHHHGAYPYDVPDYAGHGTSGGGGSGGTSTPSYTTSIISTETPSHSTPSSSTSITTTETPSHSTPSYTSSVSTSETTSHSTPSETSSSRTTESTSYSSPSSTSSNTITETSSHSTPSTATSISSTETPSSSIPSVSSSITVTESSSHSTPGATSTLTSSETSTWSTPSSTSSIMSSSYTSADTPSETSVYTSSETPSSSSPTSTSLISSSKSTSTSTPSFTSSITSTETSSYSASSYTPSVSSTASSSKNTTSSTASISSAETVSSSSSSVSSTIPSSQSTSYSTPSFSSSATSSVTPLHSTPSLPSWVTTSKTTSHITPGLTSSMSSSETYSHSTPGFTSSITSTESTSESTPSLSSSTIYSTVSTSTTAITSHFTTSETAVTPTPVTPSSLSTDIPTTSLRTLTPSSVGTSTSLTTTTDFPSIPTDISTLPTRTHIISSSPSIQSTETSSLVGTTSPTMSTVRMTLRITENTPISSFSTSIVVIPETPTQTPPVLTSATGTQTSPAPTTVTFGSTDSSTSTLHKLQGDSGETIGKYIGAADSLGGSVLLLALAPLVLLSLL

[4] = biological target: CID1944 (human GUCY2c point mutant) (human); test: flow cytometry on cells displaying the construct
[5] = biological target: CID1947 (human GUCY2c point mutant) (human); test: flow cytometry on cells displaying the construct

B1: GUCY2C-1608 (bispecific antibody)
chain 1: DIQLTQSPSSLSASVGDRVTITCRASESVDYYGSSLLQWYQQKPGKAPKLLIYAASKLASGVPSRFSGSGSGTDFTLTISSLQPEDFATYYCQQTRKAYTFGQGTKLEIKGGGSGGGGEVQLVESGGGLVQPGGSLRLSCAASGFTFSDYYMTWVRQAPGKGLEWVAFIRNQARGYTSDHNPSVKGRFTISRDNAKNSLYLQMNSLRAEDTAVYYCARDRPSYYVLDYWGQGTTVTVSSGCPPCPAPEAAGAPSVFLFPPKPKDTLMISRTPEVTCVVVDVSHEDPEVKFNWYVDGVEVHNAKTKPREEQYNSTYRVVSVLTVLHQDWLNGKEYKCKVSNKALPAPIEKTISKAKGQPREPQVCTLPPSREEMTKNQVSLWCLVKGFYPSDIAVEWESNGQPENNYKTTPPVLDSDGSFFLYSKLTVDKSRWQQGNVFSCSVMHEALHNHYTQKSLSLSPG
chain 2: DIQMTQSPSSLSASVGDRVTITCTSSQSLFNVRSQKNYLAWYQQKPGKAPKLLIYWASTRESGVPSRFSGSGSGTDFTLTISSLQPEDFATYYCKQSYDLFTFGGGTKVEIKGGGGSGGGGEVQLVESGGGLVQPGGSLRLSCAASGFTFSSYWMHWVRQAPGKGLEWIGEIKPSNELTNVHEKFKDRFTISVDKAKNSAYLQMNSLRAEDTAVYYCTRTITTTEGYWFFDVWGQGTLVTVSSGCPPCPAPEAAGAPSVFLFPPKPKDTLMISRTPEVTCVVVDVSHEDPEVKFNWYVDGVEVHNAKTKPREEQYNSTYRVVSVLTVLHQDWLNGKEYKCKVSNKALPAPIEKTISKAKGQPREPQVYTLPPCREEMTKNQVSLSCAVKGFYPSDIAVEWESNGQPENNYKTTPPVLDSDGSFFLVSKLTVDKSRWQQGNVFSCSVMHEALHNHYTQKSLSLSPG
notes: also called GUCY2c CD3 bispecific
DELFIA TRF (GUCY2C_ECD Peptide 8): 148
DELFIA TRF (GUCY2C_ECD Peptide 16): 105
DELFIA TRF (GUCY2C_ECD Peptide 21): 81
DELFIA TRF (GUCY2C_ECD Peptide 36): 112
DELFIA TRF (GUCY2C_ECD Peptide 48): 148
DELFIA TRF (GUCY2C_ECD Peptide 51): 96.8
DELFIA TRF (GUCY2C_ECD Peptide 59): 135
DELFIA TRF (GUCY2C_ECD Peptide 60): 150
DELFIA TRF (GUCY2C_ECD Peptide 71): 105
DELFIA TRF (GUCY2C_ECD Peptide 81): 109
binding result [1]: binds
binding result [2]: binds
binding result [3]: binds
binding result [4]: binds
binding result [5]: binds
